assay: soluble on expression in E. coli; label from the status in PepcDB or PDB records

| Sequence | soluble on expression in E. coli |
| --- | --- |
| MSVIYQTTITRIGQSAKEALGEQMLITFREGAPADIEEFCFIHCHGELTGALQPGARCELGQHCYPVTAVGSVAEQNLRELGHITLRFDGLREAEFPGTVHVAGPVPDDIAPGCILTFVA | not soluble |
| MNPQRDCKEFKVETRTITEVQSEPIYPTGRCGPVLARIPVVISQSKVHIDIESRVCFDHSVFDIYSHSRNIYLTQCKLLNMGNKRYGKIYLNGYVSENIAYAAYCMKGREYGNKKSTSADMLYKTLKVPFECVAKIEYCTSPVFKTSNGFIPVALPDKENSPEDSYFSGERLFCELDEASICESNVERKKLFSRINAGEDSFDTLTEYLVLSITFTLLQWQQVRIPGYFPNNPHSQI | not soluble |
| MGSDKIHHHHHHMTKLMPKFEQHRTDFAYCQTITKRSSSAFYTAFSQLPLERAWSIYAVYAFCRTADDLVDVDHDIDGLMALRQSLTTFANGHVPDHPMWRALAVVFETYDMNLDVFFDMLTGQEQDATFKQPQTQQALEDYCYYVAGSVGLMILPMLATNPQSLVKPAVELGSAMQLTNILRDVGEDYQRGRIYLPSKLLAHYQLNPTDLHGPIPSANFIRLWEHEAQIAMNKYEAALTMMPQIDPVARPSLLAATLLYRELLLIAREQHYPILSQRVFLTDERKTQVLNQVSTKVHELALKEA | not soluble |
| MRQSSQARETTETKIKLNLQLDESTNVSIQTGVGFFDHMLTLFARHGRFGLQVEAEGDVFVDAHHTVEDVGIVLGNCLKEALQNKEGINRYGSAYVPMDESLGFVAIDISGRSYCVFQGELTNPKLGDFDTELTEEFFRAVAHAANITLHARVLYGSNTHHKIEALFKAFGRALREAVEKNANITGVNSTKGML | not soluble |
| MHFTPALKPGKLLKRYKRFLADVQLEDGSEITVHCPNTGSMRNCLFPGETLWFSTSSNTKRKYAHTWELMTTPTGALIGIHSGNANALVEEALNKGIITELTGYDSLRREVKYGDENSRIDILLECAQKTACYIEVKSCTLQENGQGYFPDAVSLRGQKHLRELMHMASLGHRAVLLFVVQHTDIMSVAPAAHIDPEYANLLKKSVLSGVEVLAYRCEISPSEIHLAQSCPVRV | soluble |
| MAVLSFSFGGEITLKKPPESLKKYYPPASEKFEFLNNMHTMSTAFYAVQLNINDENWEKAKEWAQKLVKTYRETAEMVPEWKDYFDFSKADAYLNAVSSKNVDAVIKTARELGQTCAKCHRDNEVAVKIYYHFPDFHSVKVEDPIEFMEMDLGDFMKKLANSLKATNIYISQGEYEKAKEHGINFVERARAVKETCTKCHTKEAEVEAITGKEYDQALKALENLFNAEKLDTQKVAQNMKKVTVTCYTCHNVHLIPAKIKEALAK | not soluble |
| MFREESRSVPVEEGEVYDVTIQDIARQGDGIARIEGFVIFVPGTKVGDEVRIKVERVLPKFAFASVVELEHHHHHH | not soluble |
| MLASARRALHPGHPPAIHRAMNSEIDPGRCPLCQQSNRCTLAYPTSATQACWCFTTEIDAAVLERIPAELRRRACLCPRCAQLLPPDADD | not soluble |
| MRRAEMLLLKSLAETLMADRDNRHDDLQATMRLAHLSSPEMILYMVNRVLELEESIERIAAVLQKLSADEPMPLEETPPEPAFEPALQSRATETAET | not soluble |
| MGSDKIHHHHHHMKIVVTKFGGSSLADSNQFKKVKGIIDSDANRKYIIPSAPGKRTNKDYKITDLLYLCNAHVKNGIPFDDVFKLISQRYTEIVSELNIDMDIAYYLEKVKKNIENGASSDYAASRGEYLNGVILAKYLNAEFIDAAEVIFFDKSGCFDEKKSYEKIKEKVLSCNKAVIPGFYGSSFNGDVKTFSRGGSDVTGSIISAGVNADLYENWTDVSGFLMADPRIVENPKTISKISYKELRELSYMGATVLHEEAIFPVKDSGIPINIKNTNKPSDPGTLILSDTHKEINLGTITGIAGKKNFTVIAIEKALLNSEVGFCRKILSILEMYGVSFEHMPSGVDSVSLVIEDCKLDGKCDKIIEEIKKQCNPDSIEIHPNMALVATVGTGMAKTKGIANKIFTALSKENVNIRMIDQGSSEINVIVGVETVDFEKAVKSIYNAFN | not soluble |
| MVKLKVEDLEMDKIAPLAPEVSLKMAWNIMRDKNLKSIPVADGNNHLLGMLSTSNITATYMDIWDSNILAKSATSLDNILDTLSAEAQNINEERKVFPGKVVVAAMQAESLKEFISEGDIAIAGDRAEIQAELIELKVSLLIVTGGHTPSKEIIELAKKNNITVITTPHDSFTASRLIVQSLPVDYVMTKDNLVAVSTDDLVEDVKVTMSETRYSNYPVIDENNKVVGSIARFHLISTHKKKLEHHHHHHHH | soluble |
| MGSDKIHHHHHHMMDFYIKQIIIHQFSPNDTELVLSDTPLTLTPRIDDYFRKKLSKVFSDEAKRGYFGEDNVFMSHLQDDLYVSSCQIAQLWKEEFVISEDQKTNDLVFIQFDKDGMEHFAFLRISLKEQFAHVSENQEQPITITQNNLPSAAQTPDEALVVNKSSKQYYLIEKRIKHNGSFANYFSENLLQVQPEQSVKKSIKMVEQTAQKIAENFNKDDFSFQSKMKSAIYKNLEEEQELSPEKLADQLFDDNLTARLTFVDELKDAIPGPVQVSDIDHSRQIKKLENQKLSLSNGIELIVPNNVYQDAESVEFIQNPDGTYSILIKNIQDIQNK | not soluble |
| MGSDKIHHHHHHMITTWKHHETIEKAKRNAEQKIVSNVEHVEHIALVNQKRVLDAFKRKQVSEHHFTPSTGYGYDDLGRETLEAVYADVFGAETALVRPQIISGTHAIATVLFGLLRPGDELLYITGKPYDTLEEVIGIRGEEGGGSLKDFGITYHAVPLTAEQKVDKAAVKAAMNERTKVIGIQRSKGYADRPSFSINEIEQMVQFVKGINPNVIVFVDNCYGEFVEAKEPCHVGVDVIAGSLIKNPGGGIVKTGGYVAGKAPYVKQASYRLAAPGIGTEGGATLYSLLEMFQGLFLAPHVVSQAVKGAHFTAAFLDELGMRTSPRYDEQRTDLIQSVQFPDREKMIAFCQAIQAASPIDAHVTPQPSSMPGYEDPVIMAAGTFIQGASIELTADGPVRPPYIAYVQGGLTYEHVKLAVMQAADEMLSLETKGTPS | not soluble |
| MRLKDKAVLITGAAHGIGRATLELFAKEGARLVACDIEEGPLREAAEAVGAHPVVMDVADPASVERGFAEALAHLGRLDGVVHYAGITRDNFHWKMPLEDWELVLRVNLTGSFLVAKAASEAMREKNPGSIVLTASRVYLGNLGQANYAASMAGVVGLTRTLALELGRWGIRVNTLAPGFIETRMTAKVPEKVREKAIAATPLGRAGKPLEVAYAALFLLSDESSFITGQVLFVDGGRTIGAAPA | soluble |
| MTELHGECMCGAVTITATPARAALGACHCDMCRRWTSSAYVSFPVEPGYAALGPVKVYGSSDWAERAFCGTCGSVLWYRITLPGKMHGQTQMAAGLFENAGGNALKLELYIDKKPEGYAFAGERRQMTQAEVEAMYAPSDLGDSQ | not soluble |
| MKLTIIRLQHFSDQDRIDLGKIWPSQDLSTLTLDENHRLYAAHFNERLLGAVRVTLRGVEGELSDLCVREVTRRRGVGQYLVEETLRDNPAINSWRVADHGVEDRGVMAAFMQALGFSAQQ | not soluble |
| MVTSPPTSSPSQRSYSPQDWLRGYQSQPQEWDYWVEDVEGSIPPDLQGTLYRNGPGLLEIGDRPLKHPFDGDGMVTAFKFPGDGRVHFQSKFVRTQGYVEEQKAGKMIYRGVFGSQPAGGWLKTIFDLRLKNIANTNITYWGDRLLALWEGGQPHRLEPSNLATIGLDDLGGILAEGQPLSAHPRIDPASTFDGGQPCYVTFSIKSSLSSTLTLLELDPQGKLLRQKTETFPGFAFIHDFAITPHYAIFLQNNVTLNGLPYLFGLRGAGECVQFHPDKPAQIILVPRDGGEIKRIPVQAGFVFHHANAFEENGKIILDSICYNSLPQVDTDGDFRSTNFDNLDPGQLWRFTIDPAAATVEKQLMVSRCCEFPVVHPQQVGRPYRYVYMGAAHHSTGNAPLQAILKVDLESGTETLRSFAPHGFAGEPIFVPRPGGVAEDDGWLLCLIYKADLHRSELVILDAQDITAPAIATLKLKHHIPYPLHGSWAQT | soluble |
